Patent publication US20050124539A1 (Takeda / Millennium, published 2005)
Each block holds one binder with its values, some of them ahead of it. No end group written: not given here. *: point of attachment. 125I = [125I]*

Assays:
Human GPR7 [1] = target: T1, Human GPR7 (human, UniProt P48145 1-328); test: radioligand filter binding, membrane fraction of GPR7 expressing CHO cells
T1 construct: Full-length receptor expressed in CHO dhfr- cells; also called Human GPR7 receptor; GPR7 receptor
T1 sequence: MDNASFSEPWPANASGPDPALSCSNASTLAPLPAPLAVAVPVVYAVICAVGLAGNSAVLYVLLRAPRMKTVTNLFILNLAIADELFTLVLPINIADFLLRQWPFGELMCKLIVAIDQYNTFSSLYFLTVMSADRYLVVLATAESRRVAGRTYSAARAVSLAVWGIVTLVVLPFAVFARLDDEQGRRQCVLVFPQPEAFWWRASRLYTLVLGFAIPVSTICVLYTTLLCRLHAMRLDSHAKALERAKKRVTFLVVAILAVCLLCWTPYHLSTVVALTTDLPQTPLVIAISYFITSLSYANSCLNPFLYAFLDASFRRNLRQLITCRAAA
Experimental: (§1) Cell membrane fractions prepared from GPR7 expressing CHO cells and GPR8 expressing CHO cells, were diluted to various concentration with assay buffer (25 mM Tris-HCl, 5 mM EDTA, 0.05% CHAPS, 0.1% BSA, 0.5 mM PMSF, 1 μg/ml Pepstatin, 4 μg/ml E-64, 20 μg/ml Leupeptin, pH7.4), and 200 μl each of the diluent was dispensed into polypropilene test tube (Falcon 2053). In order to determine an amount of maximum binding, 2 μl of DMSO and 2 μl of 7 nM [Phe², ¹²⁵I-Tyr¹⁰]-Human GPR8 ligand (1-20) were added to the membrane fraction solution. Further, in order to determine a non-specific binding, 2 μl of 100 μM hGPR8L(1-23)/DMSO solution and 2 μl of 7 nM [Phe², ¹²⁵I-Tyr¹⁰]-Human GPR8 ligand (1-20) were added to the membrane fraction solution. The reaction was done at 25° C. for 75 minutes, and the reaction mixture was filtered by suction filtration using Whatman glassfilter (GF-F) treated with polyethyleneimine. After filtration, a radioactivity remaining on the filter was counted using γ-counter, and an amount of specific binding was estimated by subtracting an amount of non-specific binding from an amount of maximum binding. When the concentration of membrane fraction was changed, a specific binding of [Phe², ¹²⁵I-Tyr¹⁰]-Human GPR8 ligand (1-20) was perceived depending on the concentration of membrane fraction.
(§2) The IC₅₀ values were 0.13 nM and 0.039 nM, respectively. […]

[2] = target: T2, Human GPR8 receptor protein (human, UniProt P48146 1-333); test: radioligand filter binding, membrane fraction of GPR8 expressing CHO cells
T2 construct: Full-length receptor expressed in CHO dhfr- cells (CHO/GPR8)
T2 sequence (P48146 whole entry): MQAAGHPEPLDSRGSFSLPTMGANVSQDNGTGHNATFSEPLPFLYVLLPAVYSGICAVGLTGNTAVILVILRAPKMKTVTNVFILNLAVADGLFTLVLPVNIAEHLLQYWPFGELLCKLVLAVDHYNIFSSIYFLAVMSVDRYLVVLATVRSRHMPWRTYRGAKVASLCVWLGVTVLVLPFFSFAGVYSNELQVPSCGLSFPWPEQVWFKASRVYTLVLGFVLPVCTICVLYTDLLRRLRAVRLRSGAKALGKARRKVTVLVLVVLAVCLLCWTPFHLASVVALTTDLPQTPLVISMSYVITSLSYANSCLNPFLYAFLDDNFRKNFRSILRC
Experimental: as §1, §2

Human GPR7 [3] = target: T1, Human GPR7; test: competition with [Phe2, 125I-Tyr10]-Human GPR8 ligand (1-20), membrane fraction of GPR7 expressing CHO cells, 15 µg/ml
Experimental: as §1, with “In” for “Cell membrane fractions prepared from GPR7 expressing CHO cells and GPR8 expressing CHO cells, were diluted to various concentration with assay buffer (25 mM Tris-HCl, 5 mM EDTA, 0.05% CHAPS, 0.1% BSA, 0.5 mM PMSF, 1 μg/ml Pepstatin, 4 μg/ml E-64, 20 μg/ml Leupeptin, pH7.4), and 200 μl each of the diluent was dispensed into polypropilene test tube (Falcon 2053). In”
The inhibition of binding for GPR7 receptor or GPR8 receptor in the test sample (the inhibition rate (%)) is represented by the ratio of the values obtained by subtracting a radioactivity (X) remaining on the filter in the case where the test sample and of [Phe², ¹²⁵I-Tyr¹⁰]-Human GPR8 ligand (1-20) were added from the maximum binding (TB) to the specific binding (SB) ((TB−X)/SB×100(%)).
as §2

Human GPR7 [4] = target: T1, Human GPR7; test: cell-based or functional assay
[5] = target: T3, TGR26, rat-derived G protein-coupled receptor protein (rat, UniProt Q56UD9 1-329); test: competition with [125I-Tyr10]-hGPR8L(1-23), membrane fraction of TGR26 expressing CHO cells, 3 µg/ml
T3 construct: Expressed in CHO dhfr- cells from pAK-rGPR7; also called rat TGR26; TGR26 receptor
T3 sequence: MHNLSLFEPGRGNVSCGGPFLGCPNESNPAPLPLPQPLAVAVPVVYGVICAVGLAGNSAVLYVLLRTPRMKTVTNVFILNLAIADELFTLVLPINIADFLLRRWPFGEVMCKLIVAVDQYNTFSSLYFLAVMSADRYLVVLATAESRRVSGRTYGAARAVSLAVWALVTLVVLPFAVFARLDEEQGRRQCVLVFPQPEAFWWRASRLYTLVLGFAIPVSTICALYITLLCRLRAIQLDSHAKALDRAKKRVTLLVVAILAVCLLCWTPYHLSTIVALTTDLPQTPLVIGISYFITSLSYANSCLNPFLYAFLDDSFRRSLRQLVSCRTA
Experimental: Cell membrane fraction prepared from TGR26 expressing cells was diluted to various concentration with assay buffer (25 mM Tris-HCl, 5 mM EDTA, 0.05% CHAPS (3-[(3-Cholamidopropyl) Dimethyl-Ammonio]-1-Propanesulfonate), 0.1% BSA, 0.5 mM PMSF, 1 μg/ml Pepstatin, 20 μg/ml Leupeptin, 4 μg/ml E-64, pH7.4), and 200 μl each of the diluent was dispensed into polypropilene test tube (Falcon 2053). In order to determine an amount of maximum binding, 2 μl of DMSO and 2 μl of 7 nM [¹²⁵-Tyr¹⁰]-hGPR8L(1-23) were added to the membrane fraction solution. Further, in order to determine a non-specific binding, 2 μl of 100 μM hGPR8L(1-23)/DMSO solution and 2 μl of 7 nM [¹²⁵I]-Tyr¹⁰]-hGPR8L(1-23) were added to the membrane fraction solution. The reaction was done at 25° C. for 75 minutes, and the reaction mixture was filtered by suction filtration using Whatman glassfilter (GF-F) treated with polyethyleneimine. In addition, the filter was washed twice with 1.5 ml of washing buffer (25 mM Tris-HCl, 5 mM EDTA, 0.05% CHAPS, 0.1% BSA, pH7.4). After filtration, a radioactivity remaining on the filter was counted using γ-counter, and an amount of specific binding was estimated by subtracting an amount of non-specific binding from an amount of maximum binding. […]

Human GPR7 [6] = target: T1, Human GPR7; test: cell-based or functional assay; remark: listed apart in the source
[7] = target: T2, Human GPR8 receptor protein; test: competition with [125I-Tyr10]-hGPR8L(1-23), membrane fraction of GPR8 expressing CHO cells
Experimental: Cell membrane fraction prepared from Human GPR8 expressing cells was diluted to various concentration with assay buffer (25 mM Tris-HCl, 5 mM EDTA, 0.05% CHAPS (3-[(3-Cholamidopropyl) Dimethyl-Ammonio]-1-Propanesulfonate), 0.1% BSA, 0.25 mM PMSF, 1 μg/ml Pepstatin, 20 μg/ml Leupeptin, pH7.4), and 200 μl each of the diluent was dispensed into polypropilene test tube (Falcon 2053). In order to determine an amount of maximum binding (TB), […] of DMSO and 2 μl of 7 nM [¹²⁵I-Tyr²]-hGPR8L(1-23) or [¹²⁵I-Tyr¹⁰]-hGPR8L(1-23) were added to the membrane fraction solution. Further, in order to determine a non-specific binding (NSB), 2 μt of 100 μM hGPR8L(1-23)/DMSO solution and 2 μl of 7 nM [¹²⁵I]-Tyr²]-hGPR8L(1-23) or [¹²⁵I-Tyr¹⁰]-hGPR8L(1-23) were added to the membrane fraction solution. The reaction was done at 25° C. for 60 minutes, and the reaction mixture was filtered by suction filtration using Whatman glassfilter (GF-F) treated with polyethyleneimine. After filtration, a radioactivity remaining on the filter was counted using γ-counter, and an amount of specific binding (SB) was estimated by subtracting an amount of non-specific binding from an amount of maximum binding. Since the specific binding in the case where [¹²⁵I-Tyr¹⁰]-hGPR8L(1-23) was used, was twice as much as that in the case where [¹²⁵1-Tyr²]-hGPR8L(1-23) was used, in practice, [¹²⁵I-Tyr¹⁰]-hGPR8L(1-23) was used in the assay. When the concentration of membrane fraction was changed, a specific binding of [¹²⁵I-Tyr¹⁰]-hGPR8L(1-23) was perceived depending on the concentration of membrane fraction.
A receptor binding activity of human- and porcine-homologue derivatives of GPR8 ligand peptide, wherein the synthesis method has been described in the specification, was measured using a membrane fraction of GPR8 expressing CHO cells and [¹²⁵-Tyr¹⁰]-hGPR8L(1-23) by the method described in Reference Example 43.

binding result (Human GPR7 [1]): binds
binding result [2]: binds
B1: [Phe^2, ^125I-Tyr^10]-Human GPR8 ligand (1-20) (peptide)
peptide: WFKHVASPRY(125I)HTVGRAAGLL
notes: Radioligand made from [Phe2]; also called labeled [Phe^2]; Human GPR8 ligand (1-20)

IC50 (Human GPR7 [3]): 0.13 nM
inhibition of intracellular cAMP production (IC50) (Human GPR7 [4]): 0.025 nM
IC50 [5]: 0.12 nM
Promoting activity to GTPγS binding (EC50 nM) (Human GPR7 [6]): 0.74 nM
IC50 [7]: 0.25 nM
B2: human homologue of GPR8 ligand peptide consisting of 23 residues (peptide)
peptide: WYKHVASPRYHTVGRAAGLLMGL
notes: also called hGPR8L(1-23); Human GPR8 ligand (1-23)
